Data from patent US5556750.

Tested on: MutY (Escherichia coli)
Conditions: A.G to C-G correction by complementation of mutS mutY extract; fraction V

A.G mismatch heteroduplex
activity: 480000 units/mg
